Experimental data: article PMC2755957 (The Journal of Biological Chemistry, 2009)

T1: mouse Δ1–24-L-PGDS (lipocalin type prostaglandin D synthase) (Mus musculus, UniProt O09114, S45A/S81A/T67A)
T1 sequence (O09114 25-189 S45A/T67A/S81A): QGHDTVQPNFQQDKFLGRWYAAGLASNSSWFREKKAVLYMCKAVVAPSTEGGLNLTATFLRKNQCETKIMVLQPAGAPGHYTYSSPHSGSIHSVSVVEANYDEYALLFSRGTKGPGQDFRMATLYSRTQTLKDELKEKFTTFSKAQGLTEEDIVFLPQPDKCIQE

B1: mouse Δ1–24-L-PGDS (lipocalin type prostaglandin D synthase) (Mus musculus; W54A) (protein)
chain: QGHDTVQPNFQQDKFLGRWYSAGLASNSSAFREKKAVLYMCKTVVAPSTEGGLNLTSTFLRKNQCETKIMVLQPAGAPGHYTYSSPHSGSIHSVSVVEANYDEYALLFSRGTKGPGQDFRMATLYSRTQTLKDELKEKFTTFSKAQGLTEEDIVFLPQPDKCIQE
B2: mouse Δ1–24-L-PGDS (lipocalin type prostaglandin D synthase) (Mus musculus; H116A) (protein)
chain: QGHDTVQPNFQQDKFLGRWYSAGLASNSSWFREKKAVLYMCKTVVAPSTEGGLNLTSTFLRKNQCETKIMVLQPAGAPGHYTYSSPHSGSIASVSVVEANYDEYALLFSRGTKGPGQDFRMATLYSRTQTLKDELKEKFTTFSKAQGLTEEDIVFLPQPDKCIQE
B3: mouse Δ1–24-L-PGDS (lipocalin type prostaglandin D synthase) (Mus musculus; S45A) (protein)
chain: QGHDTVQPNFQQDKFLGRWYAAGLASNSSWFREKKAVLYMCKTVVAPSTEGGLNLTSTFLRKNQCETKIMVLQPAGAPGHYTYSSPHSGSIHSVSVVEANYDEYALLFSRGTKGPGQDFRMATLYSRTQTLKDELKEKFTTFSKAQGLTEEDIVFLPQPDKCIQE
B4: mouse Δ1–24-L-PGDS (lipocalin type prostaglandin D synthase) (Mus musculus; S81A) (protein)
chain: QGHDTVQPNFQQDKFLGRWYSAGLASNSSWFREKKAVLYMCKTVVAPSTEGGLNLTATFLRKNQCETKIMVLQPAGAPGHYTYSSPHSGSIHSVSVVEANYDEYALLFSRGTKGPGQDFRMATLYSRTQTLKDELKEKFTTFSKAQGLTEEDIVFLPQPDKCIQE
B5: mouse Δ1–24-L-PGDS (lipocalin type prostaglandin D synthase) (Mus musculus; S45A/S81A/T67A) (protein)
chain: QGHDTVQPNFQQDKFLGRWYAAGLASNSSWFREKKAVLYMCKAVVAPSTEGGLNLTATFLRKNQCETKIMVLQPAGAPGHYTYSSPHSGSIHSVSVVEANYDEYALLFSRGTKGPGQDFRMATLYSRTQTLKDELKEKFTTFSKAQGLTEEDIVFLPQPDKCIQE
B6: mouse Δ1–24-L-PGDS (lipocalin type prostaglandin D synthase) (Mus musculus; T67A) (protein)
chain: QGHDTVQPNFQQDKFLGRWYSAGLASNSSWFREKKAVLYMCKAVVAPSTEGGLNLTSTFLRKNQCETKIMVLQPAGAPGHYTYSSPHSGSIHSVSVVEANYDEYALLFSRGTKGPGQDFRMATLYSRTQTLKDELKEKFTTFSKAQGLTEEDIVFLPQPDKCIQE
B7: mouse Δ1–24-L-PGDS (lipocalin type prostaglandin D synthase) (Mus musculus; H111A) (protein)
chain: QGHDTVQPNFQQDKFLGRWYSAGLASNSSWFREKKAVLYMCKTVVAPSTEGGLNLTSTFLRKNQCETKIMVLQPAGAPGHYTYSSPASGSIHSVSVVEANYDEYALLFSRGTKGPGQDFRMATLYSRTQTLKDELKEKFTTFSKAQGLTEEDIVFLPQPDKCIQE
B8: Δ^1–24-L-PGDS + P110A (Mus musculus; P110A) (protein)
chain: MAALRMLWMGLVLLGLLGFPQTPAQGHDTVQPNFQQDKFLGRWYSAGLASNSSWFREKKAVLYMCKTVVAPSTEGGLNLTSTFLRKNQCETKIMVLQPAGAPGHYTYSSAHSGSIHSVSVVEANYDEYALLFSRGTKGPGQDFRMATLYSRTQTLKDELKEKFTTFSKAQGLTEEDIVFLPQPDKCIQE
B9: Δ^1–24-L-PGDS + S45A/S81A (Mus musculus; S45A/S81A) (protein)
chain: MAALRMLWMGLVLLGLLGFPQTPAQGHDTVQPNFQQDKFLGRWYAAGLASNSSWFREKKAVLYMCKTVVAPSTEGGLNLTATFLRKNQCETKIMVLQPAGAPGHYTYSSPHSGSIHSVSVVEANYDEYALLFSRGTKGPGQDFRMATLYSRTQTLKDELKEKFTTFSKAQGLTEEDIVFLPQPDKCIQE
B10: Δ^1–24-L-PGDS + S45A/T67A (Mus musculus; S45A/T67A) (protein)
chain: MAALRMLWMGLVLLGLLGFPQTPAQGHDTVQPNFQQDKFLGRWYAAGLASNSSWFREKKAVLYMCKAVVAPSTEGGLNLTSTFLRKNQCETKIMVLQPAGAPGHYTYSSPHSGSIHSVSVVEANYDEYALLFSRGTKGPGQDFRMATLYSRTQTLKDELKEKFTTFSKAQGLTEEDIVFLPQPDKCIQE
B11: Δ^1–24-L-PGDS + T67A/S81A (Mus musculus; S81A/T67A) (protein)
chain: MAALRMLWMGLVLLGLLGFPQTPAQGHDTVQPNFQQDKFLGRWYSAGLASNSSWFREKKAVLYMCKAVVAPSTEGGLNLTATFLRKNQCETKIMVLQPAGAPGHYTYSSPHSGSIHSVSVVEANYDEYALLFSRGTKGPGQDFRMATLYSRTQTLKDELKEKFTTFSKAQGLTEEDIVFLPQPDKCIQE

target: T1, mouse Δ1–24-L-PGDS (lipocalin type prostaglandin D synthase); assay: biochemical; settings: not given

**Q.** With `CC1=C(/C=C/C(C)=C/C=C/C(C)=C/C(=O)O)C(C)(C)CCC1` [all-trans-retinoic acid] as the molecule, how does the Kd read?
**A.** 418 ± 124 nM

substrate: [H][C@]12C[C@]([H])(OO1)[C@H](C/C=C\CCCC(=O)O)[C@H]2/C=C/[C@@H](O)CCCCC; assay: purified protein, by the assay type; settings: pH 8.0; 25.0 °C

**Q.** Which results are given for B1?
**A.** Km: 1.3 ± 0.5 µM; Vmax: 3.6 µmol/min/mg

**Q.** With B2 as the molecule, how does the Km read?
**A.** 1.4 ± 0.1 µM

**Q.** What about the Vmax of the same molecule?
**A.** 4.4 µmol/min/mg

**Q.** Which results are given for B3?
**A.** Km: 0.5 ± 0.2 µM; Vmax: 2.3 µmol/min/mg

**Q.** What does the source list for B4?
**A.** Km: 1.5 ± 0.4 µM; Vmax: 4.7 µmol/min/mg

**Q.** For B5, which Km is on record?
**A.** 1.2 ± 0.1 µM

**Q.** And the Vmax?
**A.** 0.5 µmol/min/mg

**Q.** Which Km does the source give for B6 here?
**A.** 2.8 ± 0.9 µM

**Q.** And the Vmax?
**A.** 2.8 µmol/min/mg

**Q.** B7 was tested. Which Km did it give?
**A.** 1.4 ± 0.4 µM

**Q.** And the Vmax?
**A.** 5.1 µmol/min/mg

**Q.** Which results are given for B8?
**A.** Km: 1.6 ± 0.5 µM; Vmax: 4.8 µmol/min/mg

**Q.** B9 was tested. Which Km did it give?
**A.** 1.2 ± 0.3 µM

**Q.** And the Vmax?
**A.** 1.5 µmol/min/mg

**Q.** B10 was tested. Which Km did it give?
**A.** 2.1 ± 0.6 µM

**Q.** And the Vmax?
**A.** 1.6 µmol/min/mg

**Q.** What does the source list for B11?
**A.** Km: 2.1 ± 0.2 µM; Vmax: 1.3 µmol/min/mg
